Laboratory results taken from the Human Domainome abundance scans (Beltran et al. 2025).
± gives the uncertainty stated by the source.

B1: Zinc finger homeobox protein 4, residues 2086 to 2141; numbered along this chain, Q86UP3 (parent)
chain: RPRTRITDDQLKILRAYFDINNSPSEEQIQEMAEKSGLSQKVIKHWFRNTLFKERQ

Variants of: B1
Assay: abundance fitness (aPCA) (normalised: wild type 0, dead -1); higher = more abundant; growth selection in yeast, the domain comes from the species named
Conditions: Homo sapiens

| Variant | abundance fitness |
| --- | --- |
| IPRTRITDDQLKILRAYFDINNSPSEEQIQEMAEKSGLSQKVIKHWFRNTLFKERQ | -0.116 ± 0.12 |
| WPRTRITDDQLKILRAYFDINNSPSEEQIQEMAEKSGLSQKVIKHWFRNTLFKERQ | -1.13 ± 0.23 |
| DPRTRITDDQLKILRAYFDINNSPSEEQIQEMAEKSGLSQKVIKHWFRNTLFKERQ | 0.188 ± 0.24 |
| KPRTRITDDQLKILRAYFDINNSPSEEQIQEMAEKSGLSQKVIKHWFRNTLFKERQ | -0.891 ± 0.33 |
| CPRTRITDDQLKILRAYFDINNSPSEEQIQEMAEKSGLSQKVIKHWFRNTLFKERQ | -0.033 ± 0.14 |
| MPRTRITDDQLKILRAYFDINNSPSEEQIQEMAEKSGLSQKVIKHWFRNTLFKERQ | -0.634 ± 0.22 |
| SPRTRITDDQLKILRAYFDINNSPSEEQIQEMAEKSGLSQKVIKHWFRNTLFKERQ | -0.284 ± 0.096 |
| RPTTRITDDQLKILRAYFDINNSPSEEQIQEMAEKSGLSQKVIKHWFRNTLFKERQ | 0.102 ± 0.091 |
| RPLTRITDDQLKILRAYFDINNSPSEEQIQEMAEKSGLSQKVIKHWFRNTLFKERQ | -0.024 ± 0.083 |
| RPDTRITDDQLKILRAYFDINNSPSEEQIQEMAEKSGLSQKVIKHWFRNTLFKERQ | 0.015 ± 0.1 |
| RPGTRITDDQLKILRAYFDINNSPSEEQIQEMAEKSGLSQKVIKHWFRNTLFKERQ | 0.099 ± 0.064 |
| RPNTRITDDQLKILRAYFDINNSPSEEQIQEMAEKSGLSQKVIKHWFRNTLFKERQ | -0.033 ± 0.12 |
| RPSTRITDDQLKILRAYFDINNSPSEEQIQEMAEKSGLSQKVIKHWFRNTLFKERQ | 0.071 ± 0.079 |
| RPETRITDDQLKILRAYFDINNSPSEEQIQEMAEKSGLSQKVIKHWFRNTLFKERQ | 0.054 ± 0.12 |
| RPHTRITDDQLKILRAYFDINNSPSEEQIQEMAEKSGLSQKVIKHWFRNTLFKERQ | 0.042 ± 0.13 |
| RPWTRITDDQLKILRAYFDINNSPSEEQIQEMAEKSGLSQKVIKHWFRNTLFKERQ | -0.569 ± 0.09 |
| RPMTRITDDQLKILRAYFDINNSPSEEQIQEMAEKSGLSQKVIKHWFRNTLFKERQ | 0.216 ± 0.11 |
| RPQTRITDDQLKILRAYFDINNSPSEEQIQEMAEKSGLSQKVIKHWFRNTLFKERQ | 0.201 ± 0.13 |
| RPKTRITDDQLKILRAYFDINNSPSEEQIQEMAEKSGLSQKVIKHWFRNTLFKERQ | -0.011 ± 0.16 |
| RPITRITDDQLKILRAYFDINNSPSEEQIQEMAEKSGLSQKVIKHWFRNTLFKERQ | -0.136 ± 0.1 |
| RPFTRITDDQLKILRAYFDINNSPSEEQIQEMAEKSGLSQKVIKHWFRNTLFKERQ | -0.15 ± 0.095 |
| RPCTRITDDQLKILRAYFDINNSPSEEQIQEMAEKSGLSQKVIKHWFRNTLFKERQ | -0.343 ± 0.097 |
| RPPTRITDDQLKILRAYFDINNSPSEEQIQEMAEKSGLSQKVIKHWFRNTLFKERQ | -0.096 ± 0.12 |
| RPVTRITDDQLKILRAYFDINNSPSEEQIQEMAEKSGLSQKVIKHWFRNTLFKERQ | -0.037 ± 0.068 |

| Variant | abundance fitness |
| --- | --- |
| RPYTRITDDQLKILRAYFDINNSPSEEQIQEMAEKSGLSQKVIKHWFRNTLFKERQ | 0.026 ± 0.12 |
| RDRTRITDDQLKILRAYFDINNSPSEEQIQEMAEKSGLSQKVIKHWFRNTLFKERQ | 0.033 ± 0.11 |
| RRRTRITDDQLKILRAYFDINNSPSEEQIQEMAEKSGLSQKVIKHWFRNTLFKERQ | -0.083 ± 0.08 |
| RCRTRITDDQLKILRAYFDINNSPSEEQIQEMAEKSGLSQKVIKHWFRNTLFKERQ | -0.844 ± 0.12 |
| RQRTRITDDQLKILRAYFDINNSPSEEQIQEMAEKSGLSQKVIKHWFRNTLFKERQ | 0.173 ± 0.13 |
| RVRTRITDDQLKILRAYFDINNSPSEEQIQEMAEKSGLSQKVIKHWFRNTLFKERQ | 0.067 ± 0.081 |
| RFRTRITDDQLKILRAYFDINNSPSEEQIQEMAEKSGLSQKVIKHWFRNTLFKERQ | 0.157 ± 0.13 |
| RYRTRITDDQLKILRAYFDINNSPSEEQIQEMAEKSGLSQKVIKHWFRNTLFKERQ | 0.022 ± 0.16 |
| RWRTRITDDQLKILRAYFDINNSPSEEQIQEMAEKSGLSQKVIKHWFRNTLFKERQ | -1.01 ± 0.15 |
| RARTRITDDQLKILRAYFDINNSPSEEQIQEMAEKSGLSQKVIKHWFRNTLFKERQ | -0.134 ± 0.097 |
| RTRTRITDDQLKILRAYFDINNSPSEEQIQEMAEKSGLSQKVIKHWFRNTLFKERQ | 0.049 ± 0.1 |
| RIRTRITDDQLKILRAYFDINNSPSEEQIQEMAEKSGLSQKVIKHWFRNTLFKERQ | -0.067 ± 0.11 |
| RLRTRITDDQLKILRAYFDINNSPSEEQIQEMAEKSGLSQKVIKHWFRNTLFKERQ | -0.047 ± 0.088 |
| RHRTRITDDQLKILRAYFDINNSPSEEQIQEMAEKSGLSQKVIKHWFRNTLFKERQ | 0.187 ± 0.14 |
| RMRTRITDDQLKILRAYFDINNSPSEEQIQEMAEKSGLSQKVIKHWFRNTLFKERQ | 0.143 ± 0.14 |
| RNRTRITDDQLKILRAYFDINNSPSEEQIQEMAEKSGLSQKVIKHWFRNTLFKERQ | 0.18 ± 0.16 |
| RSRTRITDDQLKILRAYFDINNSPSEEQIQEMAEKSGLSQKVIKHWFRNTLFKERQ | 0.057 ± 0.078 |
| RGRTRITDDQLKILRAYFDINNSPSEEQIQEMAEKSGLSQKVIKHWFRNTLFKERQ | 0.048 ± 0.077 |
| RKRTRITDDQLKILRAYFDINNSPSEEQIQEMAEKSGLSQKVIKHWFRNTLFKERQ | 0.197 ± 0.15 |
| RPRARITDDQLKILRAYFDINNSPSEEQIQEMAEKSGLSQKVIKHWFRNTLFKERQ | -0.271 ± 0.084 |
| RPRCRITDDQLKILRAYFDINNSPSEEQIQEMAEKSGLSQKVIKHWFRNTLFKERQ | -0.965 ± 0.24 |
| RPRERITDDQLKILRAYFDINNSPSEEQIQEMAEKSGLSQKVIKHWFRNTLFKERQ | -0.096 ± 0.11 |
| RPRFRITDDQLKILRAYFDINNSPSEEQIQEMAEKSGLSQKVIKHWFRNTLFKERQ | 0.036 ± 0.12 |
